Experimental data as given in the supplement of paper PMC6757056.
± gives the standard deviation of the averaged measurements.

B1: library; a variant is named by its letters at N, in order (parent)
chain: GCUGUCACCGAGAAACUGUGAAGUAUAUCUUAAACCUGGGCACUUAAAAGAUAUAUGGAGUUAGUAGUGCAACCUGCUCGGUCUGAUGAGUCCNNNNNNGGACGAAACAGC

Key:
cyclic di-GMP [1] = variants of: B1; assay: FACS-Seq fitted mean relative fluorescence mCherry/BFP without ligand (log10 relative fluorescence); HEK293T; ligand: cyclic di-GMP (c-di-GMP-II aptamer); higher = higher reporter protein expression; conditions: ligand present: no
Procedure, shortened: (§1)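 With or without ligand for 48 h, enriched HEK293T libraries carrying a lentiviral ribozyme-switch mCherry reporter and EF1α-BFP were sorted into 6 mCherry/BFP bins. Bin genomic DNA was amplified by PCR, barcoded and sequenced on MiSeq. Fluorescence was taken from normal fits to the resulting bin counts. Each fitted mean of log10(mCherry/BFP) was scaled to five spiked-in control ribozymes.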

cyclic di-GMP [2] = variants of: B1; assay: normalized RNA/DNA level without ligand (relative to sTRSVctl = 100) (log10 (% of sTRSVctl)); HEK293T; ligand: cyclic di-GMP (c-di-GMP-II aptamer); higher = less ribozyme self-cleavage, higher mRNA level; conditions: reporter: mCherry (pCS4076), ligand present: no
Experimental: (§2)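 Hammerhead (sTRSV) ribozyme switch libraries with a ligand aptamer grafted on stem I and a randomized N4-6 loop II, cloned into the 3' UTR of mCherry and transiently transfected into HEK293T cells; RNA-Seq 72 h post transfection with ligand added 1 h before transfection; RNA read count / plasmid DNA read count normalized to the non-cleaving sTRSVctl (x100), log10; sequences with >100 DNA reads. FACS-Seq: lentiviral library sorted into 6 bins after 48 h ligand, log-normal fit mean of mCherry/BFP scaled to controls. Printed sequences are partial switch sequences.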

cyclic di-GMP [3] = variants of: B1; assay: FACS-Seq fitted mean relative fluorescence mCherry/BFP with ligand (log10 relative fluorescence); HEK293T; ligand: cyclic di-GMP (c-di-GMP-II aptamer); ligand concentration (+) FACS-Seq: 1 mM; higher = higher reporter protein expression; conditions: ligand present: yes
Procedure, shortened: as §1

cyclic di-GMP [4] = variants of: B1; assay: normalized RNA/DNA level with ligand (relative to sTRSVctl = 100) (log10 (% of sTRSVctl)); HEK293T; ligand: cyclic di-GMP (c-di-GMP-II aptamer); ligand concentration (+) RNA-Seq: 1 mM; higher = less ribozyme self-cleavage, higher mRNA level; conditions: reporter: mCherry (pCS4076), ligand present: yes
Experimental: as §2

Variant	FACS-Seq fitted mean (log10) (cyclic di-GMP [1])	normalized RNA/DNA level without ligand (log10) (cyclic di-GMP [2])	FACS-Seq fitted mean (log10) (cyclic di-GMP [3])	normalized RNA/DNA level with ligand (log10) (cyclic di-GMP [4])
GCGACG	-0.315 ± 0.099	1.55 ± 0.096	-0.216 ± 0.13	1.73 ± 0.076
CCGCUU	-0.424 ± 0.011	1.557 ± 0.013	-0.124 ± 0.0085	1.79 ± 0.076
CCUCCU	-0.211 ± 0.0029	1.678 ± 0.011	0.278 ± 0.026	1.77 ± 0.098
CCUCCC	-0.363 ± 0.069	1.81 ± 0.025	-0.153 ± 0.079	1.89 ± 0.12
CCUCCG	0.138 ± 0.023	1.769 ± 0.013	0.32 ± 0.035	1.87 ± 0.073
CCUGUA	-0.428 ± 0.0045	1.54 ± 0.15	-0.0267 ± 0.0096	1.73 ± 0.077
ACGAAA	-0.618 ± 0.032	1.35 ± 0.1	-0.313 ± 0.013	1.52 ± 0.11
ACGAAG	-0.359 ± 0.056	1.42 ± 0.13	0.0516 ± 0.11	1.63 ± 0.088
CCGAAA	-0.628 ± 0.032	1.31 ± 0.12	-0.282 ± 0.0032	1.53 ± 0.1
CCGAAG	-0.589 ± 0.031	1.31 ± 0.081	-0.24 ± 0.0033	1.51 ± 0.12
CCUAUA	-0.492 ± 0.012	1.43 ± 0.12	-0.121 ± 0.047	1.65 ± 0.067
CCGUAU	-0.719 ± 0.038	1.5 ± 0.015	-0.441 ± 0.007	1.69 ± 0.16
CCGUAA	-0.4729 ± 0.0036	1.35 ± 0.17	-0.242 ± 0.019	1.57 ± 0.082
CCGAGA	-0.211 ± 0.078	1.46 ± 0.11	0.0834 ± 0.071	1.66 ± 0.086
CCGAGC	-0.204 ± 0.022	1.78 ± 0.059	0.0994 ± 0.021	1.88 ± 0.14
GCGUAG	-0.637 ± 0.047	1.67 ± 0.074	-0.348 ± 0.095	1.8 ± 0.085
GCGUAU	-0.304 ± 0.056	1.48 ± 0.043	0.0112 ± 0.012	1.72 ± 0.12
UCGGCA	-0.241 ± 0.26	1.65 ± 0.02	-0.0817 ± 0.0018	1.81 ± 0.12
UCGGCU	-0.103 ± 0.0013	1.77 ± 0.036	0.114 ± 0.004	1.88 ± 0.089
ACGCGG	-0.429 ± 0.041	1.69 ± 0.034	-0.107 ± 0.078	1.8 ± 0.13
UCUGCU	-0.406 ± 0.013	1.786 ± 0.0052	-0.176 ± 0.02	1.88 ± 0.081
UCGAUU	-0.335 ± 0.14	1.55 ± 0.074	0.0883 ± 0.079	1.74 ± 0.17
UCGAUA	-0.515 ± 0.044	1.35 ± 0.17	-0.119 ± 0.11	1.51 ± 0.084
GCCGUG	-0.238 ± 0.056	1.6 ± 0.097	0.0457 ± 0.053	1.8 ± 0.06

Variant	FACS-Seq fitted mean (log10) (cyclic di-GMP [1])	normalized RNA/DNA level without ligand (log10) (cyclic di-GMP [2])	FACS-Seq fitted mean (log10) (cyclic di-GMP [3])	normalized RNA/DNA level with ligand (log10) (cyclic di-GMP [4])
CCGACA	-0.323 ± 0.017	1.56 ± 0.068	-0.142 ± 0.068	1.74 ± 0.11
GCGUCG	-0.555 ± 0.037	1.64 ± 0.037	-0.312 ± 0.016	1.77 ± 0.11
UCUGGU	-0.364 ± 0.019	1.66 ± 0.049	-0.0436 ± 0.031	1.81 ± 0.044
CCGAUG	-0.912 ± 0.22	1.09 ± 0.038	-0.634 ± 0.095	1.32 ± 0.16
CCGCAC	-0.121 ± 0.13	1.6849 ± 0.0016	0.131 ± 0.16	1.85 ± 0.11
CCUCAA	0.0135 ± 0.11	1.46 ± 0.1	0.263 ± 0.07	1.67 ± 0.066
CCUCAG	-0.325 ± 0.018	1.669 ± 0.003	-0.0311 ± 0.077	1.81 ± 0.14
ACCGAA	-0.328 ± 0.091	1.44 ± 0.08	-0.063 ± 0.13	1.62 ± 0.12
GCUCGU	-0.452 ± 0.016	1.692 ± 0.015	-0.0822 ± 0.049	1.83 ± 0.038
CCCUAG	-0.7711 ± 0.0036	1.65 ± 0.031	-0.624 ± 0.025	1.84 ± 0.13
UCGAGU	-0.395 ± 0.033	1.47 ± 0.066	-0.0571 ± 0.032	1.73 ± 0.11
UCGAGA	-0.546 ± 0.018	1.47 ± 0.0053	-0.217 ± 0.11	1.71 ± 0.16
UCGAGC	-0.085 ± 0.098	1.736 ± 0.017	0.204 ± 0.013	1.84 ± 0.1
UCGAAA	-0.535 ± 0.0031	1.32 ± 0.069	-0.158 ± 0.043	1.58 ± 0.12
GCUACG	0.0942 ± 0.14	1.58 ± 0.017	0.353 ± 0.045	1.72 ± 0.1
UCGCCA	0.132 ± 0.027	1.71 ± 0.032	0.335 ± 0.037	1.88 ± 0.073
ACGCAG	-0.51 ± 0.13	1.677 ± 0.0051	-0.377 ± 0.0065	1.81 ± 0.094
GCUGUG	-0.283 ± 0.07	1.64 ± 0.018	-0.00737 ± 0.013	1.79 ± 0.085
GCUGUA	-0.0986 ± 0.038	1.6 ± 0.04	0.213 ± 0.017	1.74 ± 0.12
CCCGGU	-0.55 ± 0.093	1.724 ± 0.003	-0.114 ± 0.093	1.87 ± 0.11
GCGAUC	-0.51 ± 0.012	1.16 ± 0.039	-0.206 ± 0.014	1.34 ± 0.15
GCGAUA	-0.474 ± 0.0058	1.44 ± 0.11	-0.154 ± 0.057	1.61 ± 0.12
ACGCUC	-0.914 ± 0.014	1.67 ± 0.02	-0.852 ± 0.057	1.82 ± 0.16
ACGAGA	-0.604 ± 0.02	1.29 ± 0.12	-0.453 ± 0.01	1.45 ± 0.067

Variant	FACS-Seq fitted mean (log10) (cyclic di-GMP [1])	normalized RNA/DNA level without ligand (log10) (cyclic di-GMP [2])	FACS-Seq fitted mean (log10) (cyclic di-GMP [3])	normalized RNA/DNA level with ligand (log10) (cyclic di-GMP [4])
ACGAGU	-0.508 ± 0.033	1.43 ± 0.14	-0.229 ± 0.13	1.7 ± 0.11
UCUGUA	-0.293 ± 0.01	1.57 ± 0.089	0.0285 ± 0.0098	1.77 ± 0.041
GCUCAU	-0.503 ± 0.042	1.66 ± 0.0087	-0.178 ± 0.097	1.78 ± 0.1
GCUAAU	-0.207 ± 0.11	1.56 ± 0.049	0.146 ± 0.04	1.74 ± 0.078
UCCUCC	-0.766 ± 0.014	1.81 ± 0.047	-0.515 ± 0.021	1.91 ± 0.17
UCCUCG	0.369 ± 0.066	1.797 ± 0.0034	0.448 ± 0.0052	1.91 ± 0.074
ACUGUA	-0.443 ± 0.033	1.51 ± 0.076	-0.138 ± 0.021	1.76 ± 0.094
ACGGGA	-0.467 ± 0.019	1.42 ± 0.16	-0.161 ± 0.068	1.58 ± 0.075
GCGAAU	-0.502 ± 0.029	1.45 ± 0.057	-0.149 ± 0.079	1.64 ± 0.14
ACUAAG	-0.34 ± 0.089	1.5 ± 0.12	-0.165 ± 0.11	1.71 ± 0.026
ACUAAU	-0.784 ± 0.024	1.47 ± 0.052	-0.433 ± 0.047	1.68 ± 0.11
ACUAAA	-0.416 ± 0.14	1.41 ± 0.045	-0.0324 ± 0.021	1.62 ± 0.088
CCCUGC	-0.0175 ± 0.34	1.792 ± 0.0034	0.142 ± 0.079	1.9 ± 0.16
ACUGGU	-0.466 ± 0.02	1.52 ± 0.024	-0.166 ± 0.029	1.76 ± 0.079
ACUGGA	-0.72 ± 0.0076	1.39 ± 0.091	-0.5113 ± 0.0047	1.59 ± 0.087
ACUGGG	-0.467 ± 0.024	1.58 ± 0.07	-0.104 ± 0.015	1.69 ± 0.11
GCUAGA	-0.35 ± 0.031	1.49 ± 0.043	-0.116 ± 0.03	1.67 ± 0.099
GCCGCU	-0.109 ± 0.1	1.72 ± 0.015	0.0767 ± 0.02	1.92 ± 0.09
ACGUGG	-0.532 ± 0.088	1.56 ± 0.11	-0.352 ± 0.032	1.74 ± 0.058
ACGUGA	-0.228 ± 0.016	1.33 ± 0.052	-0.0284 ± 0.061	1.54 ± 0.096
ACGUGU	-0.475 ± 0.012	1.45 ± 0.097	-0.096 ± 0.051	1.69 ± 0.078
ACUACA	-0.0979 ± 0.082	1.55 ± 0.03	0.212 ± 0.16	1.73 ± 0.11
GCUGGA	-0.599 ± 0.036	1.49 ± 0.085	-0.196 ± 0.038	1.71 ± 0.099
GCUGGU	-0.0949 ± 0.014	1.6 ± 0.057	0.119 ± 0.16	1.76 ± 0.099
